The results in this text go back to article PMC9596371 (Nature Chemical Biology, 2022).

In the test the target is OC43 spike protein (FL-GCN4-Avi-His, 2P, biotinylated) (human coronavirus OC43, strain of …, UniProt P36334, stabilised, biotin on the Avi tag). Nature of the test: ELISA. As to conditions: both partners purified. On the technique in general: In an ELISA, binding on a coated surface is turned into a signal by an enzyme label.

B1: COV2-2449 IgG (antibody, V domains shown)
VH: QVQLVESGGGVVQPGRSLRLSCATSGFTFSSFALHWVRQAPGKGLEWVTVISDDGNNKYYVDSVKGRFTISRDNSKNTLFLQMNSLRVEDTAIYYCARASYNSNWSIGEYFRDWGQGTLVTVSS
VL: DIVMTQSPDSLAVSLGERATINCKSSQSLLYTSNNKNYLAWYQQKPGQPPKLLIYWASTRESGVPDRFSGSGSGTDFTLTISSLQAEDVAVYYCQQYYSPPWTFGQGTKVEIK
For the molecule B1, the binding result is given as “binds”.
